{
  "source": "paper PMC13365592",
  "assay_in_all_cases": "cryo-EM structure",
  "key": {"[1]": {"target": "MEL_213b (melbournevirus)"}, "[2]": {"target": "major capsid protein MEL_305 (melbournevirus)"}, "MEL_256 (melbournevirus)": {"target": "MEL_256 (melbournevirus)"}},
  "data": [
    {"substance": "MEL_213b (natural protein)", "values": [
      {"measurement": "stoichiometry N", "setting": "[1]", "result": 2}
    ]},
    {"substance": "major capsid protein MEL_305 (natural protein)", "values": [
      {"measurement": "stoichiometry N", "setting": "[2]", "result": 3}
    ]},
    {"substance": "MEL_256 (natural protein)", "values": [
      {"measurement": "stoichiometry N", "setting": "MEL_256 (melbournevirus)", "result": 5}
    ]}
  ]
}
